Assay [1] has as its target T1, biotinylated human Tim-3-Fc antigen (in-house preparation) (human, biotinylated).
T1 construct: limits of the Tim-3 part not given
The assay is described as follows: competition ELISA: biotinylated human Tim-3-Fc premixed with the antibody, added to plate-bound human Galectin-9 (blocked ligand); streptavidin-HRP; Binding (%). In general terms: ELISA stands for enzyme-linked immunosorbent assay.

Assay [2] deals with T1, biotinylated human Tim-3-Fc antigen …. The experiment in a line: competition flow cytometry, biotinylated Tim-3-Fc premixed with antibody, binding to phosphatidylserine on apoptotic Jurkat cells (ligand not a protein). For orientation: In flow cytometry, cells or beads pass a laser one at a time.
For assay [3], the target named is T2, human Tim-3 expressed on cells (Jurkat cells stably expressing, Expi293 cells transiently expressing, … (human, UniProt Q8TDQ0 22-301)).
T2 construct: whole, on cells; One entry for all cell-surface forms; the cell type is named under assay; also called human Tim-3 expressed on the cell membrane
The experiment in a line: flow cytometry on Expi293 cells transiently expressing human Tim-3, KD from MFI curve.

The target in assay [4] is T1, biotinylated human Tim-3-Fc antigen …. The experiment in a line: competition ELISA, biotinylated Tim-3-Fc premixed with antibody, binding to coated human Galectin-9.
Assay [5] shares this target. The assay is described as follows: competition flow cytometry, biotinylated Tim-3-Fc premixed with antibody, binding to phosphatidylserine on apoptotic Jurkat cells (ligand not a protein). This is another data set of the same source.
Assay [6] shares this target. The assay is described as follows: competition ELISA, biotinylated Tim-3-Fc premixed with antibody, binding to coated human Galectin-9. This is another data set of the same source.
For assay [7], the target named is T2, human Tim-3 expressed on cells (Jurkat …). The assay is described as follows: flow cytometry on Jurkat cells stably expressing human Tim-3, KD from MFI curve.
Assay [8] shares this target. The experiment in a line: flow cytometry on activated human CD4 T cells, KD from MFI curve.
Assay [9] has the same target. The assay is described as follows: flow cytometry on activated human CD8 T cells, KD from MFI curve.
The target in assay [10] is T1, biotinylated human Tim-3-Fc antigen …. The experiment in a line: competition flow cytometry, biotinylated Tim-3-Fc premixed with antibody, binding to phosphatidylserine on apoptotic Jurkat cells (ligand not a protein). This is another data set of the same source.
Assay [11] has the same target. The experiment in a line: competition ELISA, biotinylated Tim-3-Fc premixed with antibody, binding to coated human Galectin-9. The source holds these as a separate data set.
Assay [12] addresses T2, human Tim-3 expressed on cells (Jurkat …). The assay is described as follows: flow cytometry on Expi293 cells transiently expressing human Tim-3, KD from MFI curve. The source holds these as a separate data set.
For assay [13] the target is unchanged. The assay is described as follows: flow cytometry on activated human CD4 T cells, KD from MFI curve. This is another data set of the same source.
For assay [14] the target is unchanged. The assay is described as follows: flow cytometry on Jurkat cells stably expressing human Tim-3, KD from MFI curve. This is another data set of the same source.
Assay [15] shares this target. The assay is described as follows: flow cytometry on activated human CD8 T cells, KD from MFI curve. This is another data set of the same source.

Seven molecules from US20240391997A1 (BRIGHTPATH BIOTHERAPEUTICS, published 2024) can be followed below.

B1: Hu003_13_F20_LA antibody (antibody, V domains shown)
VH: QVQLQESGGGLVKPGGSLKLSCAASGFTFSSYYMSWVRQTPDKRLEWVATISNSGGSTYYPDSVKDRFTISRDNAKNTLYLQMSSLKSEDTAMYYCARDPYYTNYVPMDYWGQGTMVTVSS
VL: DIVMTQSPSFLSASVGDRVTITCKASQYVDTYVAWYQQRPGKAPKPLIYSASTRHTGVPSRFSGSGSGTEFTLTISSLQPEDFATYFCAQYSSSPLTFGGGTKLELK
B1: in assay [1], the “IC50 (read off the curve)” value was roughly 0.5 nM. The molecule further registered a half-maximal inhibitory concentration (IC50) in [2] of 10.7 nM.

B2: Hu621003ct antibody (bispecific antibody, not shown: a dimerising Fc or GST)
scFv 1: QVQLQESGGGLVKPGGSLKLSCAASGFTFSSYYMSWVRQTPDKRLEWVATISNSGGSTYYPDSVKDRFTISRDNAKNTLYLQMSSLKSEDTAMYYCARDPYYTNYVPMDYWGQGTMVTVSSGGGGSGGGGSGGGGSGGGGSDIVMTQSPSFLSASVGDRVTITCKASQYVDTYVAWYQQRPGKAPKPLIYSASTRHTGVPSRFSGSGSGTEFTLTISSLQPEDFATYFCAQYSSSPLTFGGGTKLELK
scFv 2: QVQLVQSGAEVKKPGASVKVSCKASGYTFTDYYMDWVRQAPGQGLEWLGYIYPNKGGTSYNQKFKGRVTMTTDKSTSTAYMELRSLRSDDTAVYYCARSGYKAYYAMDYWGQGTTVTVSSGGGGSGGGGSGGGGSGGGGSDIVMTQSQKFMSTSVGDRVSITCKASQSVGNNVAWYQQKPGQSPKLLIYYASNRYTGVPDRFTGSGSGTDFTLTISNMQSEDLADYFCQQHYSSPYTFGGGTKLEIK
For B2, the figures for the Kd in assay [3] and in assay [7] were 2.27 nM and 0.283 nM, respectively. Also, the concentration for half-maximal inhibition (IC50) in [4] turned out to be 0.819 nM; in [5], 32.3 nM. The “inhibition of the binding between human Tim-3 and human Galectin-9” value (“inhibition” below) in assay [6] is no less than 90%.

B3: Hu428003ct antibody (bispecific antibody, not shown: a dimerising Fc or GST)
scFv 1: QVQLQESGGGLVKPGGSLKLSCAASGFTFSSYYMSWVRQTPDKRLEWVATISNSGGSTYYPDSVKDRFTISRDNAKNTLYLQMSSLKSEDTAMYYCARDPYYTNYVPMDYWGQGTMVTVSSGGGGSGGGGSGGGGSGGGGSDIVMTQSPSFLSASVGDRVTITCKASQYVDTYVAWYQQRPGKAPKPLIYSASTRHTGVPSRFSGSGSGTEFTLTISSLQPEDFATYFCAQYSSSPLTFGGGTKLELK
scFv 2: QVQLVQSGAEVKKPGASVKVSCKASGYTFTDYYMDWVRQAPGQGLEWLGYIYPNKGGTSYNQKFKGRVTMTTDKSTSTAYMELRSLRSDDTAVYYCARGGYYSYYSYDYWGQGTTVTVSSGGGGSGGGGSGGGGSGGGGSDIVMTQSQKFMSTSVGDRVSITCKASQSVGNNVAWYQQKPGQSPKLLIYYASNRYTGVPDRFTGSGSGTDFTLTISNMQSEDLADYFCQQHYSSPYTFGGGTKLEIK
As to B3, the dissociation constant (Kd) in [3] amounted to 2.3 nM; in assay [8] it was 0.279 nM; in [9] it was 0.263 nM; in assay [7], 0.232 nM. Besides, the IC50 in assay [4] was 0.712 nM; in assay [5], 27.3 nM. Moreover, the “inhibition” value in assay [6] was no less than 90%.

B4: Hu149003ct antibody (bispecific antibody, not shown: a dimerising Fc or GST)
scFv 1: QVQLQESGGGLVKPGGSLKLSCAASGFTFSSYYMSWVRQTPDKRLEWVATISNSGGSTYYPDSVKDRFTISRDNAKNTLYLQMSSLKSEDTAMYYCARDPYYTNYVPMDYWGQGTMVTVSSGGGGSGGGGSGGGGSGGGGSDIVMTQSPSFLSASVGDRVTITCKASQYVDTYVAWYQQRPGKAPKPLIYSASTRHTGVPSRFSGSGSGTEFTLTISSLQPEDFATYFCAQYSSSPLTFGGGTKLELK
scFv 2: QVQLVQSGAEVKKPGASVKVSCKASGYTFTDYYMDWVRQAPGQGLEWLGYIYPNKGGTSYNQKFKGRVTMTTDKSTSTAYMELRSLRSDDTAVYYCARSGYGNYYTMDYWGQGTTVTVSSGGGGSGGGGSGGGGSGGGGSDIVMTQSQKFMSTSVGDRVSITCKASQSVGNNVAWYQQKPGQSPKLLIYYASNRYTGVPDRFTGSGSGTDFTLTISNMQSEDLADYFCQQHYSSPSTFGGGTKLEIK
With B4, the Kd in [3] amounted to 4.16 nM; in [8], 0.917 nM; in assay [9] it was 0.97 nM; in [7], 0.904 nM. Moreover, the 50% inhibitory concentration (IC50) was 1.12 nM in assay [4] and 32.3 nM in [5]. Moreover, in assay [6], the “inhibition” value was no less than 90%.

B5: Ch428003ct antibody (bispecific antibody, not shown: a dimerising Fc or GST)
scFv 1: EVMLMESGGGLVKLGGSLKLSCAASGFTFSSYYMSWVRQTPEKRLEWVATISNSGGSIYYLDSVKDRFTISRDNAKNTLYLQMSSLNSEDTAVYYCARDPYYSNYVPMDYWGQGTSVTVSSGGGGSGGGGSGGGGSGGGGSSIVMTQTPKFMSTSVGDRVSVTCKASQYVDTYVAWYQQKPGQSPKPLIYSASTRHTGVPARFTGSGSGTDFTLTISNVQSEDLAEYFCAQYSSSPLTFGAGTKLELK
scFv 2: QVQLQQSGPELVKPGDSVKMSCKASGYTFTDYYMDWVKQSHGKSLEWIGYIYPNNGGTSYNQKFKGKATLTVDKSSSTAYMELHSLTSEDSAVYYCARGGYYSYYSYDYWGQGTTLTVSSGGGGSGGGGSGGGGSGGGGSSIVMTQTPKFLPVSAGDRVTMTCKASQSVGNNVAWYQQKPGQSPKLLIYYASNRYTGVPDRFTGSGSGTDFTFTISSVQVEDLAVYFCQQHYSSPYTFGTGTKLEIK
With B5, the IC50 came to 12.8 nM in assay [10] and 0.454 nM in assay [11]. Moreover, the Kd in [12] was determined as 1.37 nM; in assay [13], 0.218 nM; in assay [14], 0.194 nM. In addition, in assay [6], the “inhibition” value was no less than 90%.

B6: Ch149003ct antibody (bispecific antibody, not shown: a dimerising Fc or GST)
scFv 1: EVMLMESGGGLVKLGGSLKLSCAASGFTFSSYYMSWVRQTPEKRLEWVATISNSGGSIYYLDSVKDRFTISRDNAKNTLYLQMSSLNSEDTAVYYCARDPYYSNYVPMDYWGQGTSVTVSSGGGGSGGGGSGGGGSGGGGSSIVMTQTPKFMSTSVGDRVSVTCKASQYVDTYVAWYQQKPGQSPKPLIYSASTRHTGVPARFTGSGSGTDFTLTISNVQSEDLAEYFCAQYSSSPLTFGAGTKLELK
scFv 2: QVQLQQSGPERVKPGDSVKMSCKASGYTFTDYYMDWVKQSHGKSLEWIGYIYPNNGGTSYNQKFKGKATLTVDKSSSTAYMELHSLTSEDSAVYYCARSGYGNYYTMDYWGQGTSVTVSAGGGGSGGGGSGGGGSGGGGSSIVMTQTPKFMPVSAGDRVTMTCKASQSVGNNVAWYQQKPGQSPKLLIYYASNRYTGVPDRFTGSGSGTDFTFTISSVQVEDLAVYFCQQHYSSPSTFGTGTKLEIK
Turning to B6, the concentration for half-maximal inhibition (IC50) came out at 22.9 nM in assay [10] and 0.589 nM in assay [11]. In addition, the dissociation constant Kd in [15] came to 0.558 nM; in assay [12], 2.17 nM; in assay [13] it was 0.508 nM; in assay [14], 0.404 nM. Moreover, in assay [6], the “inhibition” value is no less than 90%.

B7: Ch621003ct antibody (bispecific antibody, not shown: a dimerising Fc or GST)
scFv 1: EVMLMESGGGLVKLGGSLKLSCAASGFTFSSYYMSWVRQTPEKRLEWVATISNSGGSIYYLDSVKDRFTISRDNAKNTLYLQMSSLNSEDTAVYYCARDPYYSNYVPMDYWGQGTSVTVSSGGGGSGGGGSGGGGSGGGGSSIVMTQTPKFMSTSVGDRVSVTCKASQYVDTYVAWYQQKPGQSPKPLIYSASTRHTGVPARFTGSGSGTDFTLTISNVQSEDLAEYFCAQYSSSPLTFGAGTKLELK
scFv 2: QIQLQQSGPELVKPGDSVKMSCKASGYTFTDYYMDWVKQSHGKSLEWIGYIYPNNGGTSYNQKFKGKATLTVDKSSSTAYMELHSLTSEDSAVYYCARSGYKAYYAMDYWGQGTTLTVSSGGGGSGGGGSGGGGSGGGGSSIVMTQTPKFLPVSAGDRVTMTCKASQSVGNNVAWYQQKPGQSPKLLIYYASNRYTGVPDRFTGSGSGTDFTFTISSVQVEDLAVYFCQQHYSSPYTFGSGTKLEIK
With B7, the half-inhibitory concentration (IC50) was 16.3 nM in [10] and 0.751 nM in assay [11]. For the same molecule, the dissociation constant Kd in assay [15] was 0.308 nM; in assay [12] it was 1.82 nM; in assay [13] it was 0.287 nM; in assay [14] it was 0.256 nM. Moreover, the “inhibition” value in assay [6] is no less than 90%.

The term IC50 denotes the point on the concentration scale where inhibition reaches its midpoint. As usually defined, the Kd is a measure of binding affinity in units of concentration.
